Test: soluble on expression in E. coli; label from the status in PepcDB or PDB records

Soluble on expression in E. coli, not soluble:
MGSDKIHHHHHHMNQEKIQELVSRSQQDDKRAFALLVSEFQPLVFRLAFRLLCDEEEARDITQETFVKVWLSLKTYNQENRLSTWLYKITCNTCYDRLRSLRHSPLDNESAFSDSVNIPSDDHIEISLSNKQLKELILRYTNELPPQQKLVFTLRDVEELEVAEVQIITGLSPEKIKSTLYLARKNIRNKMNQIDPDL
MGSDKIHHHHHHMNQSETDMIERIFTATDALMATVGLPNLSMHKIAREAKISPGTIYIYFKNKEELLTQFARYIFQNFQDVLKEGYDERQPFFQQYRKMWWNIWHFLEAEPTIMANMGQYESLPGFSDICQKWESDSIWYHFCVKAKAAGELADVPPPILFAISLESAFNIAFKCRHFCAQVSMEMLEAVIERTWLAIKN
MGSDKIHHHHHHMNRIAEEVGLQKASVYHHYAEKDTLLLALVDYVVEELRYRIVQPDDEDPRQQLRRFIDEVVFGHHAGPDATALSPPTDGTIRAFIQIRAQAVHDDDYREQITTIDRIQQEHIAEIIQRGVDAGEFRDVDPTQVASFISTLLTGVFTRRVTMTTDLTPVREATHAYLEAVLVA
MGSDKIHHHHHHMNSGEYKYIWQASDWPNWRFDLAALAEPMAEVSRAQGLLMGRLADVGMALRDQASLAALTEDVVKTSEIEGEQLNVESVRSSIARRLGVDIGALAPVDRHVEGVVEMVLDATANCQALVSRERLFGWHAALFPTGYSGLSKINVGGWRDDATGPMQVVSGPIGRQRVHFEAPPADRLETETSRFLDWLNGTLNEPPLLKAGLGHLWFVTLHPFDDGNGRIARAIGDLLLARADGSPQRFYSLSAQIQRERKAYYDILERTQKRSMDVTEWLAWFLDTLHRAVDQAQHTLDAVLTKARFWQRWATTPLNERQVKLLNKLLDGFEGKLTSSKWAAIAKCSPDTALRDINDLLTRGVLRKSDAGGRSTSYELNDLPE
MGSDKIHHHHHHMNTDSPLKAIQPPADEQAWAVRARRQFEAEQLLYAYVEYIDDDRLEELPELFTEDGSYQIISRENVERGLPAPTMGCSNRNMLIDRIVSLRHANIYSQHAYRHVLSNVRVKAMEGDEALVQSNYVVMATRGDGIARVYSTGKYVDRLVFEEDGPKFKQKRVIFDTQLIDTLLVRPL
MGSDKIHHHHHHMNYCSIVSSNVVKGKAKELGFHKVGIAAVNESTNAEAERLQAWIKLGYHADMEWMNNPKRSDISLIMPEARSLVCVALNYYTPHQRPDSAEYAKISRYGWGRDYHKVMNRKLKALTTWLQSLDPSIQARYYADTGPVQDKVWAQRAGIGWIAKNGNVITRAYGSWVFLGEVVTNLELEKDSPHTEHCGSCTRCLDACPTGAITQPFVVDANRCIAYHTIENRAAELPEAIASQMQGWVAGCDICQDVCPWNQRFAQTTDVVDFQPYPDNIAPKLIELAQISDEEWDKQFPASALRRIKPEMLRRNARANLDASKRNNDPESNHF
MGSDKIHHHHHHMNYKTSIADNVTEKEISEKLGISLSTVKRSVSRLKNNKNLIDKVISNNVIAEGSYKTYNKYHVAKCNEDFFYIYNSFFNDDMNIAKASERIKIKNFLLKLKAICKKETNKYISESPYMDGLNKAELSKKLGIIDTKTLNKYLEMAVNAGQIKYITNGLLILNKSIIPDFKKDDTDTRIYHIIYDWCIDNDVVPPDRNDEIKIMEDGSVRRKNSLLLEIAGKLGYMKDEEIRSLLTNRITSEEITLEYIAKVLNIKNKKKKEEIEWPPIIMLD
MGSDKIHHHHHHMNYLVYQSYGSKDILNECCYSILSLLKHGINKNETRIVIYTDQPEYFSFLPAATLEFVQMSADIIADYKGVHAFVHRLKIKILQDAVTRFQGTILYVDSDIYFLKSIEPLFASISKTNLLMCNNEGRIHTGGNRIFEKFSAFIKKNTDYLKQHHIPIPYDITMWNAGVIGFLSTEKELLEKVLYTNDTIYNKFQSHVVEQLSFSYQLQKQGTLNAATDYLYHYWNFKEFRIVLAEFFKYHLNRGSVEQMIQDIDSIRPDVLIKPKLEYETLPFLKKNIRKLGGKKNRWKFPAYTIGQAATI
MGSDKIHHHHHHMPADSVRPTWSLTDIPYATIEKEKIIGNTDWFYLLAGASFVETLSDLYTRNLVEYYQENVGATTWLRQEWEMEEVQHGHALRRYVLFVWPDFDWERAYQGFVTAYAPCCRTELLGPTHALEMASRCVVETGTASFYTMIQAASPEPVLRQIAAHIRADEVHHYKYFYRIFRQYQAAEKNSRWRIGRELWKRVAEAEQEDSYLAIKNAFEVKNPGEKFFIEDFAAFRKRIGGWVDRYYPFDMAIKMLLKPVALPPMLQRAALPLLSHGARRAILG
MGSDKIHHHHHHMPAILDLFNQKTVLDYVQNRQYPQLLGDTLFPSVKIDQLDFEYLRGGSKTPIIASVSAFDTEAEIGSREASVQAAELGYIKRKMQLKEKDLIALRNPRTPAEQNYLTSLVYNDLDVLVQGVYARVEKMRMEALATGTISIDENNMNFGVTYNVPAEHQVTAATSWDADGADPIKDLQDWFALLDYAPTRILTSSKVQTALIRSKAFADYFKTAGLLPSVGSLNAVLQSFGLPTIVTYDAKYRKQGANGIYTVERYFPEDTLVAFGDDQLGQTVYGPTPEESRLIATPGVQQGTVGNVFTTVYETTQDPIATWEKAAATALPSFPEAENVLQAKVLIPKP
MGSDKIHHHHHHMPDTTHATIRSARLGDVEHILAEYRQAVAELPREESANLLWRPYDEFKAAVENGLFFVIENAVGSFMAGAGVFDLPGSVEKELGMCYVKKEWRGYGLQNLLLQIRICAATLGHVPDKSGEDAATKSFAALITGVKPANEHSAANTERLGFEPLPTPPSALFNACASCRTPPARDSGRKCCCDFFYLSDARRAEAIEKSLQMENWSRTRNGHGLIVALKIRHLLDIDFRNALHDIVQELRAQEPRVPTPGKQVK
MGSDKIHHHHHHMPEFMKPIHSVILIQNLQARIETCAEMAVNVFQNLNTASLLCPSNTGGWSIVQCLDHLNSYGDYYLPHIQKAFDTHMPGKPAEDVKSSWLGNYFTQLMLPDSGKKYKAFKKHIPKPRLDSAAVVATFIEQQEILLTYLEKAKKYDMNTIRISISIAPFIKLKLGDVFQFLVAHTERHVQQAQRNVPIYE
MGSDKIHHHHHHMPEFRKDPIIKRWVIIATERAKRPHDFARTKVEEVREGFCPFDYGNEHTTPPEIFAFRPADTEPNTPGWWVRVVPNKFPAVDPNAPLRKYGRGMYDAAMGFGYHDVVVETPDHNSHLAVMDYKNVEEVIWAYKIRYEQLMKDERIKYILIFKNHGRDAGASLSHPHSQIIALPIMPKRVQEELDGSKEYYEYKERCPFCDIIDEEKRERERIVEENDHFIALEPFAARFPFETWILPKRHMNSFHLISEDEVGSLAKILKNVLYRIYAALDNPPYNLLIHTAPTSLEGKDYYHWHIEIFPRLTKVAGFEWGTGFYINTVPPEDAARYLREVSLEQV
MGSDKIHHHHHHMPIKALRLKAMQLKATRLKAKLLQARLLQASALLGTSLNLVAMAAPYNAINESIDDGFVEAGDILVIAIPATGYLASWLYDDFEGAKQLTFSVLTTQLIVEATKSTVGRYRPNSNVAGGSYKSFPSGHSAGAFSGAAFLQSRYGSRWGIPAYLGAGVVAASRVHGRRHYADDVLGGAGIAILVNQYFVERYDNQGLAVSLFPNDEGGLQFNLSMPLDGPLNGRAGPRAEKRAQPAVHGPKRHRFAVNLGFNMTDSLGMAGAKDLLPDSQLVDDHQPFSYLLYEYLDSSKTSLQLELSPNETRLFGTLSGEFELDGKQYQDGDSLYLAFKQWSLGSQYFYRFAPQGDWHFKLGGGLYAYWVELEVDYLTGGQYAGEGSLEVMPSIEGRTRYHIGGGLSADAMARFQAWSGNQLVAAEAGLSYALGEEWVMGLKYAYSEAKWDALNMEYQTDSIVLTVENRF
MGSDKIHHHHHHMPKYLVFMDIDGTLLTDHQYVSERTRATIERFQKQDVLFYIATGRMYELAKIVRDKVNADVRLVTSNGAVFDGAQGRELTKLGGAAVELAYLIARRDNLPMMLFTPDMAYYTEQIPRFVARNAANFDADEVSIGYEEVKSFTQLATIEDQITNGVILSREDMSRLDSAREKLTNSKLLRLSSSNPNNIEMIPLNTDKGTAVKQIQREQHVDAAHTFVFGDGLNDVGMMAEADLSVAMGNALPQVKKVANYVTDMNYNDGLALFLEKYFAAHPLSTTK
MGSDKIHHHHHHMPLKTPPCVRRHTTGHETCSAQRSEHDGRRHLFPHDARALEIQERDVTHPIVSSEVPVEYINLPEPQTEGGMPLMTALHKRRSVRSFAQRPLDEALLSTLLWAAFGINRPDTGLRTAPSARNWQEIDVYVAMPDGLYALEPAAWRLRLVTGEDLRAATGLQDYVSTAPLDLVYVSRLSKLDETDKPMRQFYTALDTGYISQNVYLFCAASGLATVARGLLDRRALAKAMRLDPDQRVVLAQSVGFPA
MGSDKIHHHHHHMPLPQVTMQELPWKMKKSLSRSTLRSPNGFSEIGLKLEMVSQDALRRTIFPLGGLTKEFVKKIAAENRLHHVLQKKESMGMCFIGKRNFEHFLLQYLQPRPGHFISIEDNKVLGTHKGWFLYTLGQRANIGGLREPWYVVEKDSVKGDVFVAPRTDHPALYRDLLRTSRVHWIAEEPPAALVRDKMMECHFRFRHQMALVCCVLQGGRVPGQREDPAAGAVCLHAPEGPAQSWDGH
MGSDKIHHHHHHMPNSYTHYHDENVTDPHLRATGAISVLPLGAHEQHGPHLPFETDTLIAAGIVSRLAAVLPAHLPVSFLPVEPVGYSIEHMDVPGTKTLCYDEAIERWLGIAEAEYEKGVRKFVMLNAHGGNSPLMTIVATEARARFGMLAVATSWTRFGVPADIVKPQDKAVDIHGGDIETSVMLALHPERVVMEKAANFPSRQSDFSQRFSHLRAYGPHAFGWLMSDLNPDGVAGNAAAASAGKGERLISHAVNGLLELLEDVHAFDITLFHNKI
MGSDKIHHHHHHMPQDVMTANHVSPSNDAAAPSALDLARNQRLSLMDLLSVSEALNAAGQQAAAAELYKTWVAFNDNNPTIHLAYFNYAVMLNQLGDRAGAVQAFRACLKANPEFAPGHINLGRALEDAGLIGHAVEQWSHYAEVTKNVDAETIGHRHMTLQNMGRVLEGAGKLEEAETALLQAFELRPELPEAGQHWASLRQRQCKWPVLAPSNHISPRKMLDAMSSLTLSCYADDPMFQLAKAYRLSKTLIGARPDLSRFPRRSPKQKSGTGQRLRVGYLSSDLRDHAVGFALCEVLELHDKDSLEVFAYYCGNVRGTDSTQERIKAAVHCWRDIHGVDDATAASQIIADEIDILIDVNGYTKDARAKIFAYRPAPVIVSFCGYPGSMGSPFHQYLISDGYMIPPENEIYYSEKVLRIACDQPLDRKRPVAARPSRADVGLPEDAFVYASFNGMQKITENCFARWMTILSETPGSLLWLLTGDDDVNQRLRDLAEKSGVASERLVFAPKAQNPQHIARIGLADLFLDTFPYGAHSTASDAITSGLPVLTMYGKTFAARFCGSIVTAAGVPEMICSSPEDYVARAIGFERDRQSLLEVRESIARQRETSVLRDIPALARRLEELFWQMQGECERGETPVPDLSNLDIYYEAGAEALLENIEFEDEQSYRERYLKKLRQWHDYAPIPYDRRLWQNPDN
MGSDKIHHHHHHMPQTAFIWDLDGTLIDSYEAIMEALAVTYRTFGFDFQAEPIRRYIIKESVGKLLDILAKQHGLSSEELKTFFIQEQVKRDDKIKLMPFAKEALQWAKDRGIKQFMYTHKGASTGAVLAELGIVSYFTEILTSVSGFERKPHPQGIFYLLEKYHLDRDRTYYIGDRRLDVEVAENAGIKSINLAQPQSAANQKIDNLQVLTQLKDF

From the DeepSol protein solubility set
